Measurements taken from US20190159997A1, “COMPOSITIONS COMPRISING POLYESTERS OF BIOLOGICAL ORIGIN AND BIOCOMPATIBLE INORGANIC COMPOUNDS, AND USES THEREOF IN THE COSMETIC FIELD” (BIO-ON S.p.A., priority 2016, published 2019).

System: Streptococcus mutans ATCC 35668
Test: antibacterial effectiveness by bacterial count on Petri plates
Assay type: cell-based
Details: growth of Streptococcus mutans ATCC 35668
Description: Following the same procedure described in Example 4, two compositions of lactoferrin, hydroxyapatite and PHA were prepared, using solutions of lactoferrin with concentrations equal to 60 mg/ml and 80 mg/ml, and the same aqueous suspensions of HA and PHA used in Example (weight ratio between lactoferrin and mixture of HA+PHA equal to 1:1). The antibacterial effectiveness of these compositions was assessed, by means of bacterial count on Petri plates with respect to the growth of Streptococcus mutans ATCC 35668.

B1: lactoferrin (protein, UniProt P02788 20-710, looked up)
Lactotransferrin: GRRRSVQWCAVSQPEATKCFQWQRNMRKVRGPPVSCIKRDSPIQCIQAIAENRADAVTLDGGFIYEAGLAPYKLRPVAAEVYGTERQPRTHYYAVAVVKKGGSFQLNELQGLKSCHTGLRRTAGWNVPIGTLRPFLNWTGPPEPIEAAVARFFSASCVPGADKGQFPNLCRLCAGTGENKCAFSSQEPYFSYSGAFKCLRDGAGDVAFIRESTVFEDLSDEAERDEYELLCPDNTRKPVDKFKDCHLARVPSHAVVARSVNGKEDAIWNLLRQAQEKFGKDKSPKFQLFGSPSGQKDLLFKDSAIGFSRVPPRIDSGLYLGSGYFTAIQNLRKSEEEVAARRARVVWCAVGEQELRKCNQWSGLSEGSVTCSSASTTEDCIALVLKGEADAMSLDGGYVYTAGKCGLVPVLAENYKSQQSSDPDPNCVDRPVEGYLAVAVVRRSDTSLTWNSVKGKKSCHTAVDRTAGWNIPMGLLFNQTGSCKFDEYFSQSCAPGSDPRSNLCALCIGDEQGENKCVPNSNERYYGYTGAFRCLAENAGDVAFVKDVTVLQNTDGNNNEAWAKDLKLADFALLCLDGKRKPVTEARSCHLAMAPNHAVVSRMDKVERLKQVLLHQQAKFGRNGSDCPDKFCLFQSETKNLLFNDNTECLARLHGKTTYEKYLGPQYVAGITNLKKCSTSPLLEACEFLRK
notes: lactoferrin alone, aqueous solution with a concentration of 60 mg/ml and 80 mg/ml; protein having an antioxidizing action
Reduction bacterial growth (%) (lactoferrin solution 60 mg/ml): 30% | Reduction bacterial growth (%) (lactoferrin solution 80 mg/ml): 35%
